Measured values published in PMC2797370.

B1: prostaglandin endoperoxide synthase-1 (PGHS-1) (Ovis aries) (protein)
chain: ADPGAPAPVNPCCYYPCQHQGICVRFGLDRYQCDCTRTGYSGPNCTIPEIWTWLRTTLRPSPSFIHFLLTHGRWLWDFVNATFIRDTLMRLVLTVRSNLIPSPPTYNIAHDYISWESFSNVSYYTRILPSVPRDCPTPMDTKGKKQLPDAEFLSRRFLLRRKFIPDPQSTNLMFAFFAQHFTHQFFKTSGKMGPGFTKALGHGVDLGHIYGDNLERQYQLRLFKDGKLKYQMLNGEVYPPSVEEAPVLMHYPRGIPPQSQMAVGQEVFGLLPGLMLYATIWLREHNRVCDLLKAEHPTWGDEQLFQTARLILIGETIKIVIEEYVQQLSGYFLQLKFDPELLFGAQFQYRNRIAMEFNQLYHWHPLMPDSFRVGPQDYSYEQFLFNTSMLVDYGVEALVDAFSRQPAGRIGGGRNIDHHILHVAVDVIKESRVLRLQPFNEYRKRFGMKPYTSFQELTGEKEMAAELEELYGDIDALEFYPGLLLEKCHPNSIFGESMIEMGAPFSLKGLLGNPICSPEYWKASTFGGEVGFNLVKTATLKKLVCLNTKTCPYVSFHVPDPRQEDRPGVERPPTEL
B2: prostaglandin endoperoxide synthase-2 (PGHS-2) (Mus musculus) (protein)
chain: ANPCCSNPCQNRGECMSTGFDQYKCDCTRTGFYGENCTTPEFLTRIKLLLKPTPNTVHYILTHFKGVWNIVNNIPFLRSLIMKYVLTSRSYLIDSPPTYNVHYGYKSWEAFSNLSYYTRALPPVADDCPTPMGVKGNKELPDSKEVLEKVLLRREFIPDPQGSNMMFAFFAQHFTHQFFKTDHKRGPGFTRGLGHGVDLNHIYGETLDRQHKLRLFKDGKLKYQVIGGEVYPPTVKDTQVEMIYPPHIPENLQFAVGQEVFGLVPGLMMYATIWLREHNRVCDILKQEHPEWGDEQLFQTSRLILIGETIKIVIEDYVQHLSGYHFKLKFDPELLFNQQFQYQNRIASEFNTLYHWHPLLPDTFNIEDQEYSFKQFLYNNSILLEHGLTQFVESFTRQIAGRVAGGRNVPIAVQAVAKASIDQSREMKYQSLNEYRKRFSLKPYTSFEELTGEKEMAAELKALYSDIDVMELYPALLVEKPRPDAIFGETMVELGAPFSLKGLMGNPICSPQYWKPSTFGGEVGFKIINTASIQSLICNNVKGCPFTSFNVQDPQPTKTATINASASHSRLDDINPTVLIKRRSTEL

Tests used:
purified protein [1] = substrate: CCCCC/C=C\C/C=C\C/C=C\C/C=C\CCCC(=O)Nc1cccc(O)c1; experiment: purified protein; conditions: heme
purified protein [2] = substrate: CCCCC/C=C\C/C=C\C/C=C\C/C=C\CCCC(=O)O; experiment: purified protein; conditions: heme

| Protein | Km (purified protein [1]) [µM] | kcat (purified protein [1]) [s⁻¹] | kcat/Km (purified protein [1]) [M⁻¹ s⁻¹] | Km (purified protein [2]) [µM] | kcat (purified protein [2]) [s⁻¹] | kcat/Km (purified protein [2]) [M⁻¹ s⁻¹] |
| --- | --- | --- | --- | --- | --- | --- |
| B1 | 15 ± 1 | 22 ± 1 | 1.5e+06 ± 1e+06 | 3.4 ± 0.6 |  |  |
| B2 |  |  |  | 2.5 ± 0.4 | 47 | 1.9e+07 |
